This note sets out measurements from paper doi:10.1101/2022.03.14.484294 (bioRxiv, 2022).

The assay concerns the target Recombinant human Rac1 (Q2-L177), His-tagged (human, UniProt P63000 2-177). The assay is described as follows: AlphaScreen or HTRF. On the technique in general: Alpha assays give light when donor and acceptor beads are brought close together.

B1: Truncated recombinant human Tiam1 (R1033-E1406), FLAG-tagged (domain or fragment)
chain: RQLSDADKLRKVICELLETERTYVKDLNCLMERYLKPLQKETFLTQDELDVLFGNLTEMVEFQVEFLKTLEDGVRLVPDLEKLEKVDQFKKVLFSLGGSFLYYADRFKLYSAFCASHTKVPKVLVKAKTDTAFKAFLDAQNPKQQHSSTLESYLIKPIQRILKYPLLLRELFALTDAESEEHYHLDVAIKTMNKVASHINEMQKIHEEFGAVFDQLIAEQTGEKKEVADLSMGDLLLHTTVIWLNPPASLGKWKKEPELAAFVFKTAVVLVYKDGSKQKKKLVGSHRLSIYEDWDPFRFRHMIPTEALQVRALASADAEANAVCEIVHVKSESEGRPERVFHLCCSSPESRKDFLKAVHSILRDKHRRQLLKTE
For B1, the binding result was “binds”.
